Assay results: patent US20230073007A1 (OPTOLANE TECHNOLOGIES, published 2023)
No end group written: not given here.

T1: CRP (UniProt P02741 19-224)
T1 construct: also called antigen CRP
T1 sequence (looked up): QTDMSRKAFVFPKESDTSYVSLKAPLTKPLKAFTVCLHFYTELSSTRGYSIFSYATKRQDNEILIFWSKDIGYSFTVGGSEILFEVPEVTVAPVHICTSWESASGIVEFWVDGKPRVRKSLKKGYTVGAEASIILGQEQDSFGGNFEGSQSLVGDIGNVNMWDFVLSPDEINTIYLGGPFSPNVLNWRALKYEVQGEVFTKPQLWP

B1: switching binder of SEQ ID NO. 3 (L1) (peptide)
peptide: TYLEWYPQKPGQSPKLLIYK
modifications: also: fluorescence label in fluorescence assays, dye and place not given here
notes: also called PEPTIDE 3
B2: switching binder of SEQ ID NO. 4 (L2) (peptide)
peptide: VYYCFQGSHVPFTK
modifications: also: fluorescence label in fluorescence assays, dye and place not given here
notes: also called PEPTIDE 4
B3: switching binder of SEQ ID NO. 2 (H2) (peptide)
peptide: VYYCAREPTGTGIYFDVWGK
modifications: also: fluorescence label in fluorescence assays, dye and place not given here
notes: also called PEPTIDE 2

What was measured:
anti-HRP antibody [1] = biological target: T2, anti-HRP antibody; assay: SPR, anti-HRP antibody immobilized on gold chip, peptide at 10 µM
T2 construct: also called anti-HRP antibody 10
Method: (§1) Carbodiimide/N-Hydroxysuccinimide (EDC/NHS, 0.4 M/0.1 M) was mixed in a 1:1 ratio and treated for 10 minutes to activate functional groups. […] Thereafter, it was used after blocking with an ethanolamine concentration of 1 M for 10 minutes. All of the switching binders 100 were treated by incubation for 30 minutes using two concentrations of 10 and 20 μM, respectively. The SPR signal can be measured as an average value by repeating the routine of measuring the SPR signal for 3 minutes while the solution is stopped after flowing 1% Tween-20 washing solution for 1 minute three times.

anti-HRP antibody [2] = biological target: T2, anti-HRP antibody; assay: SPR, anti-HRP antibody immobilized on gold chip, peptide at 20 µM
Method: as §1

[3] = biological target: T3, antibody 10 immobilized by the support 30 (FIG. 7A; antibody not identified); assay: fluorescence of labeled peptide vs peptide concentration on immobilized antibody (FIG. 7A)
T3 construct: also called the antibody 10

CRP = biological target: T1, CRP; assay: fluorescence of labelled peptide (20 µM) on protein coated at 100 µg/mL on a solid support
protein A = protein A (UniProt P38507 37-477); assay: as above
[4] = biological target: B2; assay: FRET between the labelled peptides H1 and L2, H1 peptide concentration varied (linear axis, 0-10 µM)
anti-HRP antibody [5] = biological target: T2, anti-HRP antibody; assay: fluorescence of labelled peptide (10 µM) on anti-HRP antibody fixed on a solid support, before (A) and after (B) HRP 10 µg/ml; C = fluorescence in the solution
Method: (§2) 1 to 4 were each treated at a concentration of 10 μM (100 μl/well) for 2 hours. At this time, after measuring the fluorescence of the bottom, the antigen HRP as an analyte for an IgG antibody of rabbit was treated at a concentration of 10 μg/ml for 1 hour. […] 1 to 4 were each treated at a concentration of 20 μM (100 μl/well) for 2 hours. At this time, after measuring the fluorescence of the bottom, the antigen HCG as an analyte for an IgG antibody of a mouse was treated at a concentration of 100 μg/ml for 2 hours.

anti-hCG antibody = assay: fluorescence of labelled peptide (20 µM) on anti-hCG antibody fixed on a solid support, before (A) and after (B) hCG 100 µg/ml; C = fluorescence in the solution
Method: as §2

anti-HBsAg antibody = assay: fluorescence of labelled peptide (20 µM) on anti-HBsAg antibody fixed on a solid support, before (A) and after (B) HBsAg 10 µg/ml; C = fluorescence in the solution
anti-CRP antibody = assay: fluorescence of labelled peptide (20 µM) on anti-CRP antibody fixed on a solid support, before (A) and after (B) antigen 10 µg/ml (CRP by paragraph 170; paragraph 172 writes HRP); C = fluorescence in the solution
Method: 1 to 4 were each treated at a concentration of 20 μM (100 μl/well) for 2 hours. At this time, after measuring the fluorescence of the bottom (A), the antigen HRP as an analyte for an IgG antibody of rabbit was treated at a concentration of 10 μg/ml for 1 hour. […] 1 to 4 were each treated at a concentration of 20 μM (100 μl/well) for 2 hours. At this time, after measuring the fluorescence of the bottom (A), the antigen HBsAg as an analyte for an IgG antibody of a goat was treated at a concentration of 10 μg/ml for 1 hour.

[6] = biological target: B3; assay: FRET between the labelled peptides L1 and H2, L1 peptide concentration varied (linear axis, 0-10 µM)
[7] = biological target: T3, antibody 10 immobilized by the support …; assay: fluorescence of labelled peptide on an antibody fixed on a support, peptide concentration varied (log axis, 0.1-100 µM)
[8] = biological target: B1; assay: FRET between the two peptides (FIG. 5E)

Binder: SYWIHWVKQRPGQGLEWIGE (also: fluorescence label in fluorescence assays, dye and place not given here, also called PEPTIDE 1) [switching binder of SEQ ID NO. 1 (H1)]
- SPR signal (anti-HRP antibody [1]): 34.4 RU
- SPR signal (anti-HRP antibody [2]): 121 RU
- Kd [3]: 1.42 µM
- binding result (CRP): no binding (tested: 20 µM)
- binding result (protein A): no binding (tested: 20 µM)
- binding result [4]: binds
- percent printed over the arrow from bar A to bar B (residual bound peptide after antigen; agrees with B as percent of A) (anti-HRP antibody [5]): 12.3%
- percent printed over the arrow from bar A to bar B (residual bound peptide after antigen; agrees with B as percent of A) (anti-hCG antibody): 34.4%
- percent printed over the arrow from bar A to bar B (residual bound peptide after antigen; agrees with B as percent of A) (anti-HBsAg antibody): 73.2%
- percent printed over the arrow from bar A to bar B (residual bound peptide after antigen; agrees with B as percent of A) (anti-CRP antibody): 73.2%

Binder: B1
- SPR signal (anti-HRP antibody [1]): 25.3 RU
- SPR signal (anti-HRP antibody [2]): 40.4 RU
- Kd [3]: 6.62 µM
- binding result (CRP): no binding (tested: 20 µM)
- binding result (protein A): no binding (tested: 20 µM)
- binding result [6]: binds
- EC50 (read off the curve) [7]: ~6 µM
- percent printed over the arrow from bar A to bar B (residual bound peptide after antigen; agrees with B as percent of A) (anti-HRP antibody [5]): 12.8%
- percent printed over the arrow from bar A to bar B (residual bound peptide after antigen; agrees with B as percent of A) (anti-HBsAg antibody): 51.4%
- percent printed over the arrow from bar A to bar B (residual bound peptide after antigen; agrees with B as percent of A) (anti-CRP antibody): 51.4%

Binder: B2
- SPR signal (anti-HRP antibody [1]): 125 RU
- SPR signal (anti-HRP antibody [2]): 418 RU
- Kd [3]: 6.68 µM
- binding result (CRP): no binding (tested: 20 µM)
- binding result (protein A): no binding (tested: 20 µM)
- percent printed over the arrow from bar A to bar B (residual bound peptide after antigen; agrees with B as percent of A) (anti-HRP antibody [5]): 25.5%
- percent printed over the arrow from bar A to bar B (residual bound peptide after antigen; agrees with B as percent of A) (anti-hCG antibody): 9.3%
- percent printed over the arrow from bar A to bar B (residual bound peptide after antigen; agrees with B as percent of A) (anti-HBsAg antibody): 55.1%
- percent printed over the arrow from bar A to bar B (residual bound peptide after antigen; agrees with B as percent of A) (anti-CRP antibody): 55.1%

Binder: B3
- binding result [8]: binds
- SPR signal (anti-HRP antibody [1]): 51.5 RU
- SPR signal (anti-HRP antibody [2]): 192 RU
- Kd [3]: 19.4 µM
- binding result (CRP): no binding (tested: 20 µM)
- percent printed over the arrow from bar A to bar B (residual bound peptide after antigen; agrees with B as percent of A) (anti-HRP antibody [5]): 14.8%
- percent printed over the arrow from bar A to bar B (residual bound peptide after antigen; agrees with B as percent of A) (anti-hCG antibody): 11.5%
- percent printed over the arrow from bar A to bar B (residual bound peptide after antigen; agrees with B as percent of A) (anti-HBsAg antibody): 60.5%
- percent printed over the arrow from bar A to bar B (residual bound peptide after antigen; agrees with B as percent of A) (anti-CRP antibody): 60.5%
